The source of these data is patent US20150125450A1 (published 2015).

In one experiment the target is T1, murine TNF-α (murine, UniProt P06804 80-235).
T1 sequence (looked up): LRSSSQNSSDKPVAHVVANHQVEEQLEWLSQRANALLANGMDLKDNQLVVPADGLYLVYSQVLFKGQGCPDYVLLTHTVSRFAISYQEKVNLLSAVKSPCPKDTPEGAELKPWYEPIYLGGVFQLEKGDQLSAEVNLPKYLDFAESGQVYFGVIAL
Put plainly: Western blotting, reducing conditions. (In general: A western blot detects proteins with antibodies after separation by electrophoresis.)

Another experiment addresses T2, human TNF-β (human, UniProt P01374 35-205, limits assumed).
T2 sequence (looked up): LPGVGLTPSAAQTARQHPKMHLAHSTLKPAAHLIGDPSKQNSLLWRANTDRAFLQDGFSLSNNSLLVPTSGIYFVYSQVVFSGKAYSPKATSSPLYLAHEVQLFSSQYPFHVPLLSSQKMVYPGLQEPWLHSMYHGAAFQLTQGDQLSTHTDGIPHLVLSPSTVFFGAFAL
Put plainly: Western blotting, reducing conditions.

The next experiment addresses human TNF-α (human, UniProt P01375 77-233). Put plainly: cell-based or functional assay.
The next experiment concerns the target Cynomolgus monkey TNF-α (Cynomolgus monkey, UniProt P79337 77-233). Put plainly: ELISA. (ELISA stands for enzyme-linked immunosorbent assay.)
Another experiment deals with human IL-6 (human, UniProt P05231 30-212). Put plainly: cell-based or functional assay.
The target of the next experiment is T3, murine IL-6 (murine, UniProt P08505 25-211).
T3 sequence (looked up): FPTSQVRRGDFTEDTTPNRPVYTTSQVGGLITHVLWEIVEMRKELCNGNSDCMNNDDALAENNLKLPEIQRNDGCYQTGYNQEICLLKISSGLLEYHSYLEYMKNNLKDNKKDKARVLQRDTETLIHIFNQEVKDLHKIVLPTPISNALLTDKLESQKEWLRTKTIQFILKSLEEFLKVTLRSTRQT
Put plainly: Western blotting.

Sequence of Cynomolgus monkey TNF-α (P79337 77-233 limits assumed): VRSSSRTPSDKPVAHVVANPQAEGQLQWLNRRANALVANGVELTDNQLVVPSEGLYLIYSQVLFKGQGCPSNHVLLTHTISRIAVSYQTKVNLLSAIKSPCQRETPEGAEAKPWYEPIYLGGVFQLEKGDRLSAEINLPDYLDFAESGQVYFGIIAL
Sequence of human TNF-α (P01375 77-233 limits assumed): as the sequence (P79337 77-233 limits assumed) above, with V37L, T44R, N72T, L138R counted along it

B1: 4C9 mouse anti-human TNF-α monoclonal antibody (antibody, mouse IgG1, V domains shown)
VH: VQLQESGPSLVKPSQTLSLTCSVTGDSITSGFWNWIRKFPGNKFEYMGYISYSGRTYYNPSLKSRLSITRDTSKNQFYLQLNSVTAEDTATYYCARDANYVLDYWGQGTTLTVSS
VL: DIQLTQSPSSLAMSVGQKVTMNCKSSQSLLNSSTQKNYLAWFQQKPGQSPKLLVYFASARESGVPDRFIGSGSGTDFTLTISSVQAEDLADYFCQQHYRTPFTFGSGTKLEIKR
notes: Murine IgG1/kappa; 4C9D11 and 4C9D11G11 are subclones of 4C9; also called 4C9D11; 4C9D11G11
Take B1: the binding result in the experiment with murine TNF-α and in the experiment with human TNF-β was “no binding” in each case. For the same molecule, the “EC50, inhibition of TNF-α-induced cytotoxicity, L929 cells, MTS” value with human TNF-α came to 0.0112 µg/mL.

B2: chimeric 4C9 antibody (chimeric anti-TNF-α clone 6A9) (antibody, V domains shown)
VH: VQLQESGPSLVKPSQTLSLTCSVTGDSITSGFWNWIRKFPGNKFEYMGYISYSGRTYYNPSLKSRLSITRDTSKNQFYLQLNSVTAEDTATYYCARDANYVLDYWGQGTTLTVSS
VL: DIQLTQSPSSLAMSVGQKVTMNCKSSQSLLNSSTQKNYLAWFQQKPGQSPKLLVYFASARESGVPDRFIGSGSGTDFTLTISSVQAEDLADYFCQQHYRTPFTFGSGTKLEIKR
notes: also called cIgG-anti-TNF-α
Consider B2, for which the binding result with Cynomolgus monkey TNF-α is reported as “binds”.

B3: 2-3B2 mouse monoclonal antibody against human IL-6 (antibody, V domains shown)
VH: VKLQESGGGLVQPGGSRKLSCAASGFTFSRFGMHWVRQAPEKGLEWVAYIGRGSSTIYYADTVKGRFTISRDNPKNTLFLQMTSLRSEDTAMYYCARSNWDGAMDYWGQGTSVTVSS
VL: DIQLTQSPASLSASVGETVTITCRASGNIHNFLAWYQQKQGKSPQLLVYNAETLADGVPSRFSGSGSGTQYSLKINSLQPEDFGSYYCQHFWSTPWTFGGGTKLEIKR
notes: Murine IgG1/kappa hybridoma antibody; also called 2-3B2 anti-IL-6 antibody
Turning to B3, the “potency for inhibiting IL-6 induced phosphorylation of STAT3, relative to 4-4E6” value with human IL-6 is ~100 fold. Further, the binding result with murine IL-6 is reported as “no binding”.
